Data on six compounds can be found in patent publication US11733246B2, “Compositions, imaging, and therapeutic methods targeting folate receptor 1 (FOLR1)” (Indi Molecular, Inc., priority 2020, dated 2023).

The subject of data set [1] is OVCAR3 FOLR1+ cells. The experiment in a line: Flow cytometry binding to FOLR1 (+) cells. It counts as cell-based, human. The settings on record: OVCAR3 vs PC-3, flow cytometry. As for the experimental part:
Both the kyeet (SEQ ID NO:9) and hshta (SEQ ID NO:6)-derived biligands were tested by flow cytometry for binding to FOLR1 (+) and FOLR1 (−) cell lines (FIGS. 6 and 7). The human ovarian adenocarcinoma-derived cell line OVCAR3 has robust FOLR1 expression and was selected as the FOLR1 (+) cell line. The human prostate adenocarcinoma-derived cell line PC-3 was selected as a FOLR1 (−) cell line.
Competition at the cellular level was also probed.
Increasing the serum-bound fraction of the peptide may decrease first pass removal of the heterobiligand, and drive compound retention of tumor over kidney. Constructs bearing the known albumin binder 4-methylphenyl butyric acid (4-MPBA) were synthesized. These compounds were evaluated in vitro to verify binding fidelity to FOLR1. The modified heterobiligands were incubated at 400 nM with OVCAR3 and PC-3 cells for 20 minutes at 37° C. in complete media containing 20% FBS. They both bind to OVCAR3 FOLR1+ cells with similar binding affinities as the original heterobiligand studied (FIG. 14). […] Similar activity of these heterobiligands is anticipated in vivo.

The subject of data set [2] is OVCAR3 FOLR1+ cells. Briefly: Flow cytometry binding to FOLR1 (+) cells. Type of data set: cell-based, human. The following applies: 40 nM of the test article. For orientation: In flow cytometry, cells or beads pass a laser one at a time.
Another data set concerns OVCAR3 cells. Briefly: Cell internalization assay (acid wash, flow cytometry). Type of data set: cell-based, human. The settings on record: OVCAR3 cell line. As for the experimental part:
FIG. 10 is a diagram of an assay for assessing cell internalization FOLR1 heterobiligands.
The folate-hshta (SEQ ID NO:6) Nterm heterobiligand was also evaluated in cell penetration imaging assays (FIG. 10). OVCAR3 and PC-3 cells were incubated with the test article at 37° C. for 1 hour. Flow cytometry analysis of the resulting treated cells indicated strong binding to FOLR1 (+) cells. To understand the proportion bound to the surface but not internalized, the cells were briefly washed with acid to liberate the non-internalized peptide.
(§1) Nonclinical studies were first conducted with Folate-hshta-PEG10-PEG10-K(Biotin), where Folate-hshta is the targeting heterobiligand, PEG10 is a deca(ethylene glycol) linker, and K(Biotin) is the detection label. […] Cross reactivity with the murine folate receptor was also observed. […] In the merged image, purple puncta were observed indicating co-localization of internalized heterobiligand with early endosomes (Rab5a+ vesicles) in OVCAR3 cells.

In a further data set the test system is OVCAR3 (FOLR+) cells. Briefly: Fluorescence microscopy / live cell imaging of dye-labeled heterobiligand. Type of data set: cell-based, human. The following applies: DyLight 650 label, OVCAR3 vs PC3.
From the text: To further understand intracellular trafficking of the Nterm heterobiligand, these dye-labeled compounds were imaged by fluorescence microscopy. The cells were counterstained with BioTracker 490, which stains membranes, and Rab5a+, an endosomal stain. […] Low levels of DyLight650 was detected within PC-3 (FOLR1−) cells. Taken together, internalization of the heterobiligand appears to be receptor driven and selective for FOLR1 (+) cells.
as §1

Another data set addresses human serum albumin (Homo sapiens, UniProt P02768). The settings on record: read-out: affinity for human serum albumin; cited from earlier work.
For another data set, the target named is human recombinant NEP (Homo sapiens, UniProt P08473). It counts as biochemical. As for the experimental part:
In order to test the susceptibility of GFK and MVK linkers to NEP-mediated cleavage, the peptide (Folate-hshta-Lys(MPBA)-Gly-Phe-Lys(DOTA) (SEQ ID NO:6)) was incubated with human recombinant NEP and analyzed the solution for the presence of cleaved adducts. MALDI was utilized to monitor the cleavage of a PCC heterobiligand that contains a NEP protease recognizable sequence (G-F-K). The PCC concentration was constant and the NEP concentration was titrated down from 10 nM to 1 nM, 0.1 nM, 0.01 nM, and no NEP. The NEP-mediated cleaved adduct was identified by mass. 10 μM PCC containing the GFK linker was combined with varying amounts of NEP. […] Below 0.1 nM no cleavage was observed. • Folate-hshta-Lys(MPBA)-Gly-Phe-Lys(DOTA) (SEQ ID NO:6) • Molecular weight 2231.42
The NEP-mediated cleavage was also monitored by HPLC. In agreement with the MALDI spectra, the HPLC chromatograms show depletion of the parent brush-border heterobiligand (retention time 17.1 minutes), dose-dependent on the amount of NEP spiked into the sample (10 nM, 1 nM, 0.1 nM, 0.01 nM, and no NEP). An appearance of a new peak (retention time 16.5 minutes) in concert with the depletion of the starting material is presumed to be the cleaved folate-containing peptide.
In order to test the specificity of NEP, a non-cleavable linker (PEG3) was also assayed.
To reduce the radioactive dose to the kidney, Indi ^177Lu-7327 was constructed to incorporate a GFK linker that is susceptible to cleavage by enzymes found predominately in the kidney's brush border. These enzymes cleave off the radionuclide-chelator complex, which is quickly eliminated by the kidney for excretion in the urine. The zinc metalloprotease neprilysin (NEP) is expressed with high abundance in the kidney. […] To confirm NEP-mediated cleavage of the GFK linker in Indi 7327, the peptide was incubated with recombinant human NEP at 37° C. for 1 h and analyzed by matrix-assisted laser desorption/ionization mass spectrometry (MALDI-MS) for the evolution of cleaved adducts (FIG. 42). […] The expected cleaved adduct (mass: 1283.16 m/z) appears in the samples containing 10, 1.0, and 0.1 nM NEP. […] Below 0.1 nM NEP, no cleavage was observed. In addition to confirming the selectivity of NEP for the GFK linker, it is also important to note that the remaining portions of the Indi 7327 were impervious to the enzyme.

A further data set is described as follows: Plasma stability, human. The settings on record: pH 7.4, Plasma Stability (t 1/2), Hu, AO construct marked (FB).
The next data set is described as follows: Plasma stability, mouse. The settings on record: CD-1, mouse, pH 7.4, Plasma Stability (t 1/2), Mu, AO construct marked (FB).
Another data set is described as follows: in vivo. The following applies: female, NSG, mouse, iv, total radioactivity. As for the experimental part:
(§2) Female, 7-week-old NSG mice were housed under pathogen-free conditions. Water and food were provided ad libitum. To create mice with FOLR1+ ovarian xenograft tumors, mice were injected subcutaneously with OVCAR3 cells (1×10^7 cells per mouse) resuspended in 50% Matrigel in PBS into the shoulder region. Tumor growth was monitored by caliper measurements. OVCAR3 is a human ovarian adenocarcinoma known to over-express FOLR1.
(§3) ^68Ga PET imaging was used to study in vivo biodistribution of heterobiligands in non-tumor bearing (healthy) mice and OVCAR3 tumor bearing mice. 100-200 μCi of [^68Ga]DOTA-labeled heterobiligand was administered intravenously (i.v.) via the tail vein of each mouse. Dynamic PET imaging was performed from 0-1 h, followed by acquisition of static PET images at 2 h and 4 h post-injection. CT scans were acquired for anatomical reference. Imaging was performed on an Inveon microPET/CT small animal scanner. The PET signal was quantitated by three-dimensional ROI analysis and represented as percent injected dose (% ID) vs. time ([…]) for major organs including tumor, liver, heart, lung, bladder, and kidney.
(§4) Evaluation of a folate-hshta (SEQ ID NO:6) Nterm heterobiligand bearing both an albumin binder and DOTA chelator in PET was a priority, given that DOTA can accommodate both ^68Ga for imaging and ^177Lu for radiotherapy. A 200 μCi dose of ^68Ga-labeled folate-hshta-PEG3-Lys(MPBA)-Lys(DOTA) (SEQ ID NO:6) (compound #2809) was injected i.v. via tail vein in an NSG mouse bearing s.c. human OVCAR3 (FOLR1+) tumor. ^68Ga PET/CT imaging scans were performed at 0-1 h (dynamic), 2 h (static), and 4 h (static). […] The time-course biodistribution of ^68Ga-labeled folate-hshta-PEG3-Lys(MPBA)-Lys(DOTA) (SEQ ID NO:6) (compound #2809) was calculated to quantify the uptake in major organs including the tumor (FIG. 17). […] Larger tumors (490 mm^3) were also evaluated with the ^68Ga-chelated PET probe.
(§5) Images were captured for compound #1307 at the time points 5 min, 10 min, 15 min, 30 min, 1 h, 2 h, and 4 h. PET/CT images were taken following the injection of 4 female NSG mice with ^68Ga-chelated compound #2809. […] Images for mouse 4 are shown in FIG. 23 (Compounds #1307 and #2809) and FIG. 24 (Compound #1307).
(§6) Biodistribution was initially evaluated by PET imaging, as the time frame for a significant portion of clearance is roughly similar to the time frame of PET imaging experiments. Indi ^68Ga-7327 was injected via the tail vein into OVCAR3 (FOLR+) tumor implanted female NSG mice once the tumor size reached 200 mm^3, and microPET/CT scans were acquired at 5 min, 10 min, 15 min, 30 min, 1 h, 2 h, and 4 h post-injection. PET images were corrected for CT-based photon attenuation, detector normalization and radioisotope decay and converted to units of percent injected dose per cc (% ID/cc).

In data set [3] the test system is OVCAR3 (FOLR1+) tumor bearing NSG mice. The experiment in a line: in vivo. The following applies: mouse. As for the experimental part:
as §2, §3, §4, §5, §6

Numbered stars: 1 amine (or outer) side, 2 acyl side, 3 side chain; on linkers, the order of the positions; unused ones are H or OH. Bridge positions count the residues as written; N and C are the ends. Square brackets hold non-standard residues; d marks the D form. Triazole bridges read from a SMILES are 1,4-linked. Ends that are not written are not given here. Peptide text beside a SMILES is read from it. * marks the point of attachment. DOTA = O=C(O)CN1CCN(CC(=O)O)CCN(CC(=O)*)CCN(CC(=O)O)CC1; Pteroyl = Nc1nc2ncc(CNc3ccc(C(=O)*)cc3)nc2c(=O)[nH]1; Butanoyl(4-(4-MePh)) = Cc1ccc(CCCC(=O)*)cc1; Lys(N3) = [N-]=[N+]=NCCCC[C@H](N)C(=O)O; γGlu = O=C(O)[C@H](CCC(=O)[*:2])N[*:1]; AEEEA = NCCOCCOCCOCC(=O)O; Pra = C#CC[C@H](N)C(=O)O; X2 = NOCC(=O)* Where only a bound is given, the exact number is not on record here.

Chain of human recombinant NEP (P08473 whole entry): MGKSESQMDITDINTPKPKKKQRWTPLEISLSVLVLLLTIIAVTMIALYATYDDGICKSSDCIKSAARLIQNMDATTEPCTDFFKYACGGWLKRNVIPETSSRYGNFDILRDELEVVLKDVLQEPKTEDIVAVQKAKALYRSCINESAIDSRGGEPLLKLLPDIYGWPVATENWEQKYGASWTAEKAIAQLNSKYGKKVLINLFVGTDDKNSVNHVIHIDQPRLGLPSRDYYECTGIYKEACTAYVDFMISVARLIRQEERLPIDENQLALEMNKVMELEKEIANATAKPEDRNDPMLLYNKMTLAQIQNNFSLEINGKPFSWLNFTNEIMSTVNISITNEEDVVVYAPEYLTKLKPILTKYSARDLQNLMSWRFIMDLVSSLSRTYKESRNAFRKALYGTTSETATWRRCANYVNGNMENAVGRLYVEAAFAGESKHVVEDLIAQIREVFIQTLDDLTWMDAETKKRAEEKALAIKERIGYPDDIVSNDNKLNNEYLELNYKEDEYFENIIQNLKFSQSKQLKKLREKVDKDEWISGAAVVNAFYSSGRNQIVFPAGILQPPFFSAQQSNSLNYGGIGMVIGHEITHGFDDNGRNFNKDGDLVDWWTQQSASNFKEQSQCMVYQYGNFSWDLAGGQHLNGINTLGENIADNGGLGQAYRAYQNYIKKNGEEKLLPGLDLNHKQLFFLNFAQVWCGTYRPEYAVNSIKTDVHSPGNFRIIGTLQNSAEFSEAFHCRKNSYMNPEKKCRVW
Description for Plasma stability, mouse: Plasma was thawed in a 37° C. water bath. Residual clots were removed via centrifugation at 4000 rpm for 5 minutes. The pH of the plasma was adjusted to 7.4 if required. Test articles were diluted to 100 μM by diluting a 1 mM working solution (in DMSO) with 45% methanol in water. To 98 μL of plasma was added 2 μL of the 100 μM solution, resulting in 2 μM final concentration of the test article. Samples were incubated at 37° C. in a water bath. At the indicated time points (0, 10, 30, 60, 120 minutes) 100 μL of 4% H3PO4 was added followed by 800 μL of stop solution (200 ng/mL tolbutamide and 200 ng/mL labetalol in 100% acetonitrile). The samples were centrifuged and the plasma protein-free supernatant (100 μL) was subjected to LC-MS/MS analysis.

Turning to `C[C@H](O)[C@H]1NC(=O)[C@@H](CCC(=O)O)NC(=O)[C@@H](CCC(=O)O)NC(=O)[C@@H](Cc2ccc(O)cc2)NC(=O)[C@@H](CCCCN)NC(=O)[C@@H](NC(=O)[C@H](Cc2cn(CCOCCOCCOCCNC(=O)CC[C@H](NC(=O)c3ccc(NCc4cnc5nc(N)[nH]c(=O)c5n4)cc3)C(=O)O)nn2)NC(=O)CCOCCOCCOCCOCCOCCOCCOCCOCCOCCOCCNC(=O)CCOCCOCCOCCOCCOCCOCCOCCOCCOCCOCCNC(=O)CCCC[C@@H]2SC[C@@H]3NC(=O)N[C@@H]32)Cc2cn(nn2)CCCC[C@@H](C(N)=O)NC1=O` [folate-kyeet heterobiligand], the “selectivity for FOLR1 (+) cells over FOLR1 (−) cells” value in the data set on OVCAR3 FOLR1+ cells [1] is “high selectivity for FOLR1 (+) cells”. The “selectivity for FOLR1 (+) cells” value in the data set with OVCAR3 FOLR1+ cells [2] is recorded as “Virtually complete selectivity”.
On to “heterobiligand labeled with DyLight 650: folate-hshta Nterm heterobiligand labeled with the dye DyLight 650 ([dH][dS][dH][dT][dA]; not fully specified (N-terminus); printed as hshta; also: labeled with DyLight 650, place not given here, heterobiligand)”, for which the “internalized fraction in acid wash (pH 3.0) assay” value in the data set with OVCAR3 cells is given as “high percentage”. Also, the “internalization / intracellular localization” value is given as “internalization with clear preference for early endosomes” in the data set with OVCAR3 (FOLR+) cells and “Selective internalization into OVCAR3 (FOLR+) cells” in the data set with OVCAR3 (FOLR+) cells (listed as DyLight650-labeled peptide-folate heterobiligand).
Turning to “GI48-GA: albumin-binding domain, fragment of protein G from Streptococcus strain GI48 (SEQ ID NO:33) (LAEAKVLANRELDKYGVSDYYKNLINNAKTVEGVKALIDEILAA)”, the Kd in the data set with human serum albumin is 1 nM.
Usually half-life stands for how long it takes for the measured level to halve. A lower half-life goes with rapid decline. For `C[C@H](O)[C@H]1NC(=O)[C@@H](Cc2cnc[nH]2)NC(=O)[C@@H](CO)NC(=O)[C@@H](Cc2cnc[nH]2)NC(=O)[C@@H](NC(=O)CC[C@H](NC(=O)c2ccc(NCc3cnc4nc(N)[nH]c(=O)c4n3)cc2)C(=O)O)Cc2cn(nn2)CCCC[C@@H](C(=O)NCC(=O)N[C@@H](Cc2ccccc2)C(=O)N[C@@H](CCCCNC(=O)CON)C(=O)O)NC(=O)[C@@H](C)NC1=O` [compound 3303, Fol-hshta-Gly-Phe-Lys(AO)] ({Pteroyl-γGlu}-[Pra][dH][dS][dH][dT][dA][Lys(N3)]GFK(X2)-OH; triazole 1-7), in the data set with human recombinant NEP, the “in vitro Assay Data (NEP assay)” value was “Cleavage of -G-F-K-”. Moreover, the half-life at 2 μM in the data set “Plasma stability, human” is above 116 h; in “Plasma stability, mouse”, above 116 h.
On to `Cc1ccc(CCCC(=O)NCCCC[C@H](NC(=O)COCCOCCOCCNC(=O)[C@@H]2CCCCn3cc(nn3)C[C@H](NC(=O)CC[C@H](NC(=O)c3ccc(NCc4cnc5nc(N)[nH]c(=O)c5n4)cc3)C(=O)O)C(=O)N[C@H](Cc3c[nH]cn3)C(=O)N[C@H](CO)C(=O)N[C@H](Cc3c[nH]cn3)C(=O)N[C@H]([C@H](C)O)C(=O)N[C@H](C)C(=O)N2)C(=O)N[C@@H](CCCCNC(=O)CN2CCN(CC(=O)O)CCN(CC(=O)O)CCN(CC(=O)O)CC2)C(N)=O)cc1` [^68Ga-chelated compound #2809, metal not drawn] ({Pteroyl-γGlu}-[Pra][dH][dS][dH][dT][dA][Lys(N3)][AEEEA]K(Butanoyl(4-(4-MePh)))K(DOTA)-NH2; triazole 1-7), for which the tissue uptake per volume at 4 h in “in vivo” (200 uCi, dose accumulation in the tumor) is around 1.4 %ID/mL.
Regarding `C[C@H](O)[C@H]1NC(=O)[C@@H](Cc2cnc[nH]2)NC(=O)[C@@H](CO)NC(=O)[C@@H](Cc2cnc[nH]2)NC(=O)[C@@H](NC(=O)CC[C@H](NC(=O)c2ccc(NCc3cnc4nc(N)[nH]c(=O)c4n3)cc2)C(=O)O)Cc2cn(nn2)CCCC[C@@H](C(=O)NCC(=O)N[C@@H](Cc2ccccc2)C(=O)N[C@@H](CCCCNC(=O)CN2CCN(CC(=O)O)CCN(CC(=O)O)CCN(CC(=O)O)CC2)C(=O)O)NC(=O)[C@@H](C)NC1=O` [Indi ^68Ga-7327, metal not drawn] ({Pteroyl-γGlu}-[Pra][dH][dS][dH][dT][dA][Lys(N3)]GFK(DOTA)-OH; triazole 1-7), the tissue uptake per volume at 4 h in “in vivo” (accumulation in the tumor) was found to be 1.55 %ID/mL. In [3], the kidney uptake result is “significant reduction in kidney uptake”.
